Target: trimerized [change]-Tag (A/duck/Viet Nam/TG24-01/2005 (H5N1))
Assay: cell-based or functional assay

S-Protein-GCN4 (reference 2)
hemagglutination unit (HAU), co-expression with H5-S-Tag in plants in vivo: 2 HAU | hemagglutination unit (HAU), combination with H5-S-Tag in vitro: 0 HAU

S-Protein-pII (reference 1)
hemagglutination unit (HAU), co-expression with H5-S-Tag in plants in vivo: 0 HAU | hemagglutination unit (HAU), combination with H5-S-Tag in vitro: 0 HAU

wild type S-Protein (from UniProt P61823 47-150)
hemagglutination unit (HAU), co-expression with H5-S-Tag in plants in vivo: 4 HAU | hemagglutination unit (HAU), combination with H5-S-Tag in vitro: 0 HAU

— patent US20200181633A1
